# Measurements published in publication PMC9537944, “eIF4G1 N-terminal intrinsically disordered domain is a multi-docking station for RNA, Pab1, Pub1, and self-assembly” (Frontiers in Molecular Biosciences, 2022).
# T1: eIF4G1 1-82 (Saccharomyces cerevisiae, UniProt P39935 1-82)
# T1 sequence: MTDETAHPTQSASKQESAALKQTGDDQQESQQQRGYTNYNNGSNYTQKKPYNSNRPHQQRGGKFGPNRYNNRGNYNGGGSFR
# B1: A14 (ssRNA)
# RNA: AAAAAAAAAAAAAA
# B2: eIF4G1_(1-249), N-terminal intrinsically disordered region of eIF4G1 (domain or fragment, Saccharomyces cerevisiae, UniProt P39935 1-249, looked up)
# chain: MTDETAHPTQSASKQESAALKQTGDDQQESQQQRGYTNYNNGSNYTQKKPYNSNRPHQQRGGKFGPNRYNNRGNYNGGGSFRGGHMGANSSNVPWTGYYNNYPVYYQPQQMAAAGSAPANPIPVEEKSPVPTKIEITTKSGEHLDLKEQHKAKLQSQERSTVSPQPESKLKETSDSTSTSTPTPTPSTNDSKASSEENISEAEKTRRNFIEQVKLRKAALEKKRKEQLEGSSGNNNIPMKTTPENVEEK
# notes: 15N-labelled where it was the observed partner; Minor isoaspartate forms (12%-14%) are reported at positions 41 and 76; In the intermolecular PRE experiment the second copy was the Q109C mutant carrying a TEMPO spin label; also called eIF4G1 IDR; not shown: thioredoxin A, N-terminal, cleaved; 6xHis, internal (between thioredoxin A and the TEV site), cleaved
# How the values were obtained:
# eIF4G1 1-82 = biological target: T1, eIF4G1 1-82; test: NMR (1H-15N HSQC titration); shifts centered at R34, R55, G65; new Arg side-chain NeHe signal; NMR: 25 mM potassium phosphate pH 6.5, 25 or 150 mM NaCl, 1 mM DTT, 10% D2O, 25 C, 800 MHz (general NMR conditions; not stated specifically for RNA titrations); details: protein: recombinant; tags: N-terminal gs left after TEV cleavage of TrxA-6xHis; single strand
# [1] = biological target: the molecule itself; test: NMR paramagnetic relaxation enhancement (intermolecular PRE); 15N-labelled wild-type eIF4G1 1-249 mixed 1:1 with TEMPO spin-labelled eIF4G1 1-249 Q109C at natural isotopic abundance; intensity ratios of 1H-15N HSQC peaks, oxidised against ascorbate-reduced label; 25 mM potassium phosphate pH 6.5, 25 mM NaCl, 1 mM DTT
Binder,binding result (eIF4G1 1-82),binding result [1]
B1,binds,–
B2,–,binds
